First the molecules themselves.
B1: NRC3_wobSeed93_DR3_G10T_o1 (dsDNA)
DNA 1: GCAGTCAAATTTCATCTAGGTAACGTAAGATATGCTGCGATTGACAGCGTAGAATGAAGG
DNA 2: CCTTCATTCTACGCTGTCAATCGCAGCATATCTTACGTTACCTAGATGAAATTTGACTGC
B2: NRC3_wobSeed114_DR4_T12A_o1 (dsDNA)
DNA 1: GCAATACAGGGACATCGTAGGCCAGAGTACGCACAGGCGATTGACAGCGTAGAATGAAGG
DNA 2: CCTTCATTCTACGCTGTCAATCGCCTGTGCGTACTCTGGCCTACGATGTCCCTGTATTGC
B3: NRC3_wobSeed15_DR0_G11C_o1 (dsDNA)
DNA 1: GCCGAACTAGCTCAAGGACAGTGAATCTCCGCACGCGCGATTGACAGCGTAGAATGAAGG
DNA 2: CCTTCATTCTACGCTGTCAATCGCGCGTGCGGAGATTCACTGTCCTTGAGCTAGTTCGGC
B4: NRC3_wobSeed65_DR2_A5T_o1 (dsDNA)
DNA 1: GCATTTGTAGGTTATCGGGTCATTCAGTTTGCGCATGCGATTGACAGCGTAGAATGAAGG
DNA 2: CCTTCATTCTACGCTGTCAATCGCATGCGCAAACTGAATGACCCGATAACCTACAAATGC
B5: NRC3_random_hg19_75_o1 (dsDNA)
DNA 1: GCCTGAAACTACCTTATCTCTATTCTAGGCTTAAGCGCGATTGACAGCGTAGAATGAAGG
DNA 2: CCTTCATTCTACGCTGTCAATCGCGCTTAAGCCTAGAATAGAGATAAGGTAGTTTCAGGC
B6: NRC3_wobSeed66_DR2_G11A_o1 (dsDNA)
DNA 1: GCAATACAGGATCACTAGGCCAGAGTAGGTACGAATGCGATTGACAGCGTAGAATGAAGG
DNA 2: CCTTCATTCTACGCTGTCAATCGCATTCGTACCTACTCTGGCCTAGTGATCCTGTATTGC
B7: NRC3_wobSeed40_DR1_T12C_o1 (dsDNA)
DNA 1: GCTAGCCTAGGCCATGGGCCAGTATACCACGCGAACGCGATTGACAGCGTAGAATGAAGG
DNA 2: CCTTCATTCTACGCTGTCAATCGCGTTCGCGTGGTATACTGGCCCATGGCCTAGGCTAGC
B8: NRC3_wobSeed138_DR5_G10A_o1 (dsDNA)
DNA 1: GCGATACAGAGTCAGCTAGAGGCCAGAGTATGGAAAGCGATTGACAGCGTAGAATGAAGG
DNA 2: CCTTCATTCTACGCTGTCAATCGCTTTCCATACTCTGGCCTCTAGCTGACTCTGTATCGC
B9: NRC3_wobSeed100_DR4_C23A_o1 (dsDNA)
DNA 1: GCCCTACTGGGCCACGAAAGGTAATTGATTCAGTGAGCGATTGACAGCGTAGAATGAAGG
DNA 2: CCTTCATTCTACGCTGTCAATCGCTCACTGAATCAATTACCTTTCGTGGCCCAGTAGGGC
B10: NRC3_wobSeed86_DR3_C13A_o1 (dsDNA)
DNA 1: GCGCTGCTAGGTAAGGTTGGTCAGCTAACGGGTACGGCGATTGACAGCGTAGAATGAAGG
DNA 2: CCTTCATTCTACGCTGTCAATCGCCGTACCCGTTAGCTGACCAACCTTACCTAGCAGCGC
B11: NRC3_wobSeed98_DR4_G11C_o1 (dsDNA)
DNA 1: GCACTAGTTGCTCAGCTGAGGTCACACACAATTCGGGCGATTGACAGCGTAGAATGAAGG
DNA 2: CCTTCATTCTACGCTGTCAATCGCCCGAATTGTGTGTGACCTCAGCTGAGCAACTAGTGC
B12: NRC3_wobSeed34_DR1_A9T_o1 (dsDNA)
DNA 1: GCATCGAATGGTCGAAGGTGAGTATACCCACCCGAAGCGATTGACAGCGTAGAATGAAGG
DNA 2: CCTTCATTCTACGCTGTCAATCGCTTCGGGTGGGTATACTCACCTTCGACCATTCGATGC
B13: NRC3_wobSeed117_DR4_T11C_o1 (dsDNA)
DNA 1: GCCGTCAAAGCTCAACTAAGGTAACGTAAAGCACGCGCGATTGACAGCGTAGAATGAAGG
DNA 2: CCTTCATTCTACGCTGTCAATCGCGCGTGCTTTACGTTACCTTAGTTGAGCTTTGACGGC
B14: NRC3_random_hg19_265_o1 (dsDNA)
DNA 1: GCCTCCCTCCTCCCATCCTCCACTTTCCCATAGGCCGCGATTGACAGCGTAGAATGAAGG
DNA 2: CCTTCATTCTACGCTGTCAATCGCGGCCTATGGGAAAGTGGAGGATGGGAGGAGGGAGGC
B15: NRC3_wobSeed38_DR1_A14T_o1 (dsDNA)
DNA 1: GCCCTGCTAGGTCTATGGTCAGCTAAAGCAGCTCGCGCGATTGACAGCGTAGAATGAAGG
DNA 2: CCTTCATTCTACGCTGTCAATCGCGCGAGCTGCTTTAGCTGACCATAGACCTAGCAGGGC
B16: NRC3_wobSeed136_DR5_A14C_o1 (dsDNA)
DNA 1: GCTAGCCTAGGTCCTTCAGGGGCCAGTATAGAAAGCGCGATTGACAGCGTAGAATGAAGG
DNA 2: CCTTCATTCTACGCTGTCAATCGCGCTTTCTATACTGGCCCCTGAAGGACCTAGGCTAGC
B17: NRC3_random_hg19_179_o1 (dsDNA)
DNA 1: GCGGGAGGTGTAAGGATCCTTGTGCACTGCTTGGGAGCGATTGACAGCGTAGAATGAAGG
DNA 2: CCTTCATTCTACGCTGTCAATCGCTCCCAAGCAGTGCACAAGGATCCTTACACCTCCCGC
B18: NRC3_wobSeed76_DR3_G19T_o1 (dsDNA)
DNA 1: GCCCTACTGGGCCAAAAATGTCATTGATGCCGATAAGCGATTGACAGCGTAGAATGAAGG
DNA 2: CCTTCATTCTACGCTGTCAATCGCTTATCGGCATCAATGACATTTTTGGCCCAGTAGGGC
B19: NRC3_wobSeed28_DR1_A21C_o1 (dsDNA)
DNA 1: GCCCTACTGGGCCAAAGGTCCTTGATTCCAATGCTCGCGATTGACAGCGTAGAATGAAGG
DNA 2: CCTTCATTCTACGCTGTCAATCGCGAGCATTGGAATCAAGGACCTTTGGCCCAGTAGGGC
B20: NRC3_wobSeed16_DR0_C13G_o1 (dsDNA)
DNA 1: GCCAGCCTAGGTGAGGGCCAGTATAGGAGGAACGTTGCGATTGACAGCGTAGAATGAAGG
DNA 2: CCTTCATTCTACGCTGTCAATCGCAACGTTCCTCCTATACTGGCCCTCACCTAGGCTGGC
B21: NRC3_wobSeed30_DR1_G17A_o1 (dsDNA)
DNA 1: GCACTAGCAGGCCAAGAGTCACTCAAGATTAGTCCGGCGATTGACAGCGTAGAATGAAGG
DNA 2: CCTTCATTCTACGCTGTCAATCGCCGGACTAATCTTGAGTGACTCTTGGCCTGCTAGTGC
B22: NRC3_wobSeed111_DR4_G21T_o1 (dsDNA)
DNA 1: GCCGAACTAGGTCAGAACAGTACAGTGAAGGATGATGCGATTGACAGCGTAGAATGAAGG
DNA 2: CCTTCATTCTACGCTGTCAATCGCATCATCCTTCACTGTACTGTTCTGACCTAGTTCGGC
B23: NRC3_wobSeed124_DR5_T23A_o1 (dsDNA)
DNA 1: GCCCTACTGGGCCATTCAGAGGACATTGATCATATGGCGATTGACAGCGTAGAATGAAGG
DNA 2: CCTTCATTCTACGCTGTCAATCGCCATATGATCAATGTCCTCTGAATGGCCCAGTAGGGC
B24: NRC3_random_hg19_331_o1 (dsDNA)
DNA 1: GCACAATCCCTACACTTTAGGAAGTCACAGTCTAGTGCGATTGACAGCGTAGAATGAAGG
DNA 2: CCTTCATTCTACGCTGTCAATCGCACTAGACTGTGACTTCCTAAAGTGTAGGGATTGTGC
B25: NRC3_wobSeed88_DR3_T12A_o1 (dsDNA)
DNA 1: GCTAGCCTAGGACATGCGGGCCAGTATAGTGTCGGCGCGATTGACAGCGTAGAATGAAGG
DNA 2: CCTTCATTCTACGCTGTCAATCGCGCCGACACTATACTGGCCCGCATGTCCTAGGCTAGC
B26: NRC3_wobSeed87_DR3_T12A_o1 (dsDNA)
DNA 1: GCCGAACTAGGACATCCAGGACAGTGAATACATTGAGCGATTGACAGCGTAGAATGAAGG
DNA 2: CCTTCATTCTACGCTGTCAATCGCTCAATGTATTCACTGTCCTGGATGTCCTAGTTCGGC
B27: NRC3_random_hg19_459_o1 (dsDNA)
DNA 1: GCAAACACAACAGTACCTACCTTAAGCAGTTCATCAGCGATTGACAGCGTAGAATGAAGG
DNA 2: CCTTCATTCTACGCTGTCAATCGCTGATGAACTGCTTAAGGTAGGTACTGTTGTGTTTGC
B28: NRC3_wobSeed21_DR0_A14T_o1 (dsDNA)
DNA 1: GCCGTCAAAGTTCTAGGTAACGTAACAGAAAGCAGCGCGATTGACAGCGTAGAATGAAGG
DNA 2: CCTTCATTCTACGCTGTCAATCGCGCTGCTTTCTGTTACGTTACCTAGAACTTTGACGGC
B29: NRC3_wobSeed90_DR3_A14C_o1 (dsDNA)
DNA 1: GCCATACAGGGTCCGCTAGGCCAGAGTAGGGACGGCGCGATTGACAGCGTAGAATGAAGG
DNA 2: CCTTCATTCTACGCTGTCAATCGCGCCGTCCCTACTCTGGCCTAGCGGACCCTGTATGGC
B30: NRC3_random_hg19_4_o1 (dsDNA)
DNA 1: GCGTAGTTGTGTCCTCTCCTGTTCTCTCTTCTACTGGCGATTGACAGCGTAGAATGAAGG
DNA 2: CCTTCATTCTACGCTGTCAATCGCCAGTAGAAGAGAGAACAGGAGAGGACACAACTACGC
B31: NRC3_wobSeed10_DR0_A7G_o1 (dsDNA)
DNA 1: GCATCGGAAGGTCGAGGTGAGTATAGAGAAAGGGAAGCGATTGACAGCGTAGAATGAAGG
DNA 2: CCTTCATTCTACGCTGTCAATCGCTTCCCTTTCTCTATACTCACCTCGACCTTCCGATGC

RARb:RXRa, sequence (P10826 whole entry, chain 1 of 2): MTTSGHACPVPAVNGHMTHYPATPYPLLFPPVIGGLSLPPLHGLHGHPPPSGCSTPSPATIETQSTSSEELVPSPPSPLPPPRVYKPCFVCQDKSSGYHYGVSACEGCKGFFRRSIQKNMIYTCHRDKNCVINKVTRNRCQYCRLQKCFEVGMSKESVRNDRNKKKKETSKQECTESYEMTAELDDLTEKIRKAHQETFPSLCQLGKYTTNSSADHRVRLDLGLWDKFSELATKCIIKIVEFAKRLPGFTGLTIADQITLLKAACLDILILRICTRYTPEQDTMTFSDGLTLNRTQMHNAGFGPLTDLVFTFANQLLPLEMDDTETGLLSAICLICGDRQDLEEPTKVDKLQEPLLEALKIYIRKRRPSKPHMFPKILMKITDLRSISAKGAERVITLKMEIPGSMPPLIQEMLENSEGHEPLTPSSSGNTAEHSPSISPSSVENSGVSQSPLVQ
RARb:RXRa, sequence (P19793 whole entry, chain 2 of 2): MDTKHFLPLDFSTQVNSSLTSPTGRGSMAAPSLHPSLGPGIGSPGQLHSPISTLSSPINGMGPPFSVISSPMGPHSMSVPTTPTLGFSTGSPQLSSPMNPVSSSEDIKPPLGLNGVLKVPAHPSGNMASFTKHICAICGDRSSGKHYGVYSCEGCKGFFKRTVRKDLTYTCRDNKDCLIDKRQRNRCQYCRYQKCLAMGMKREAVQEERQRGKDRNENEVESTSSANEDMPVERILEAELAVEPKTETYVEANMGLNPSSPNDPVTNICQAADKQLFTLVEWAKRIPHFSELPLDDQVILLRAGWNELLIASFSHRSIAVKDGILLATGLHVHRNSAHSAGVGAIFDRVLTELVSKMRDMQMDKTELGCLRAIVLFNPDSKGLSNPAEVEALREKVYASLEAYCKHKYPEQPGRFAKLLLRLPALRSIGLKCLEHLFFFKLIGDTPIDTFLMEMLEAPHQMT

In this series the target is RARb:RXRa (Homo sapiens, UniProt P10826;P19793 full;full). Kind of series: no ligand; PBM; 270 nM : 90 nM RXRa; PBS pH 7.4, 2% milk, 0.02% Triton X-100, 1 mM DTT, BSA, 0.4 mg/ml salmon testes DNA. To be noted: tags: His kept;His cleaved; copies: 1;1; label: surface-attached array probe. The procedure, abridged:
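The probes on custom Agilent 4×180K protein-binding microarrays were double-stranded, with 34-nt variable regions bearing direct-repeat seeds, single-nucleotide variants, half-site ablations and random human genomic background sequences. Incubation lasted 1 h with ligand-free nuclear receptor dimers in PBS pH 7.4, 2% milk, 0.02% Triton X-100, 1 mM DTT, 0.2 mg/mL BSA and 0.4 mg/ml salmon testes DNA. Antibodies against each partner (one per run) detected bound dimers, and fluorescence scans were regression-normalized. Binding z-scores take the random background probes as reference.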
Regarding B1, the binding signal was 0.23 PBM z-score against 500 random probes. The value for B2 was 0.47 PBM z-score against 500 random probes. The result for B3 reads 0.3 PBM z-score against 500 random probes.

In the case of B4, the binding signal is 3 PBM z-score against 500 random probes. The value for B5 was 0.33 PBM z-score against 500 random probes. The result for B6 reads 0.18 PBM z-score against 500 random probes; that for B7, 0.19 PBM z-score against 500 random probes. The result for B8 reads 0.27 PBM z-score against 500 random probes; that for B9, 0.41 PBM z-score against 500 random probes; that for B10, 0.16 PBM z-score against 500 random probes.

Turning to B11, the binding signal is 3.01 PBM z-score against 500 random probes.

Regarding B12, the binding signal was 0.4 PBM z-score against 500 random probes. For B13, the binding signal is 0.06 PBM z-score against 500 random probes. The value for B14 was 0.13 PBM z-score against 500 random probes; that for B15 was 0.39 PBM z-score against 500 random probes; that for B16 was 0.43 PBM z-score against 500 random probes. The value for B17 was 0.23 PBM z-score against 500 random probes; that for B18 was 0.29 PBM z-score against 500 random probes; that for B19 was 0.42 PBM z-score against 500 random probes. B20: the binding signal was 0.33 PBM z-score against 500 random probes.

With B21, the binding signal was 0.46 PBM z-score against 500 random probes. The value for B22 was 3.01 PBM z-score against 500 random probes; that for B23 was 0.46 PBM z-score against 500 random probes; that for B24 was 0.39 PBM z-score against 500 random probes.

Turning to B25, the binding signal was -0.15 PBM z-score against 500 random probes. The value for B26 was 0.14 PBM z-score against 500 random probes; that for B27 was 0.25 PBM z-score against 500 random probes. With B28, the binding signal was 0.4 PBM z-score against 500 random probes.

Consider B29, for which the binding signal is 0.26 PBM z-score against 500 random probes. The result for B30 reads 0.3 PBM z-score against 500 random probes.

As for B31, the binding signal was 3 PBM z-score against 500 random probes.

These data come from publication PMC6555819, “Comprehensive study of nuclear receptor DNA binding provides a revised framework for understanding receptor specificity”.
